# Experiments:
# [1] = molecular target: T1, human complement factor 1q (human, UniProt P02745 23-245; P02746 28-253; P02747 29-245); experiment: real-time fluorescence binding (LigandTracer); human C1q (60 ug/ml) spotted on nitrocellulose; CMFDA-labelled THP-1 microvesicles preincubated 2 h at 37 °C with pCRP or mCRP (100 ug/ml) and added at 20 ug/ml; the read-out is the fluorescence of the microvesicles that carry the CRP; details: both partners purified
# T1 construct: Complement C1q subcomponent subunit A, human; Complement C1q subcomponent subunit B, human; Complement C1q subcomponent subunit C, human; also called C1q; complement C1q; source: bought: Merck Chemicals GmbH; copies: 6 + 6 + 6
# T1 sequence (P02745 23-245, chain 1 of 3): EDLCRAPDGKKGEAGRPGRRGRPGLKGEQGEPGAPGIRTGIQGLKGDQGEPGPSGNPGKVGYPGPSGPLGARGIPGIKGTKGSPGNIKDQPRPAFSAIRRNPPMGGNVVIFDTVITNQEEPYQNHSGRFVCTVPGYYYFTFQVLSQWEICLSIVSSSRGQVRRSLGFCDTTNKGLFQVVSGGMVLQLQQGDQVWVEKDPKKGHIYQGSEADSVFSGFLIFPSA
# T1 sequence (P02746 28-253, chain 2 of 3): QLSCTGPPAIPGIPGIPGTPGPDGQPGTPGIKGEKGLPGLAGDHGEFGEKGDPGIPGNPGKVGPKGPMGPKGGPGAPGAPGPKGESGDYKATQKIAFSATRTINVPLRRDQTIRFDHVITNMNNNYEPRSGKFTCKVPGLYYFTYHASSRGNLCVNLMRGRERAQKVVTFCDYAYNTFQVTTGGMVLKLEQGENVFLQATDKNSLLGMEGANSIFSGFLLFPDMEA
# T1 sequence (P02747 29-245, chain 3 of 3): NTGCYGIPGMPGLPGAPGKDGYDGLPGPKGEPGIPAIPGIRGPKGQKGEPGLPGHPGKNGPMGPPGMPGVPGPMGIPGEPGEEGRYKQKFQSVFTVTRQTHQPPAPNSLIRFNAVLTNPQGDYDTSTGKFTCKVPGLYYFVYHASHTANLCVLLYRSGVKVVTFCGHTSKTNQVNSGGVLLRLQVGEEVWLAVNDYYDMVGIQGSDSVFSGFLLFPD
# [2] = molecular target: T2, Alexa Fluor 488-labelled C1q (human, UniProt P02745 23-245; P02746 28-253; P02747 29-245, Alexa Fluor 488 (site and chain not stated) | Alexa Fluor 488 (site and chain not stated) | Alexa Fluor 488 (site and chain not stated)); experiment: real-time fluorescence binding (LigandTracer); THP-1 microvesicles (0.5 mg/ml) spotted on nitrocellulose, blocked with 5% BSA; Alexa Fluor 488-labelled C1q added with or without pCRP; details: both partners purified
# T2 construct: Complement C1q subcomponent subunit A, human; Complement C1q subcomponent subunit B, human; Complement C1q subcomponent subunit C, human; Same protein as m3 with a fluorescent label; source: labelled with Alexa Fluor 488; copies: 6 + 6 + 6
# T2 sequence (P02745 23-245, chain 1 of 3): as the sequence (P02745 23-245, chain 1 of 3) above
# T2 sequence (P02746 28-253, chain 2 of 3): as the sequence (P02746 28-253, chain 2 of 3) above
# T2 sequence (P02747 29-245, chain 3 of 3): as the sequence (P02747 29-245, chain 3 of 3) above
binder,measurement,setting,value
"pentameric C-reactive protein (natural protein, human, UniProt P02741 19-224, looked up, C-reactive protein, human; five identical subunits of about 23 kDa; also called pCRP; CRP; source: bought: Calbiochem; dialysed against D-PBS with 2 mM Ca2+) QTDMSRKAFVFPKESDTSYVSLKAPLTKPLKAFTVCLHFYTELSSTRGYSIFSYATKRQDNEILIFWSKDIGYSFTVGGSEILFEVPEVTVAPVHICTSWESASGIVEFWVDGKPRVRKSLKKGYTVGAEASIILGQEQDSFGGNFEGSQSLVGDIGNVNMWDFVLSPDEINTIYLGGPFSPNVLNWRALKYEVQGEVFTKPQLWP",binding result,[1],binds
same,binding result,[2],binds
